Source: US20180155451A1 (published 2018)

T1: FcγRIIa H (human, UniProt P12318 34-217)
T1 construct: extracellular domain; also called FcgRIIa H type; 2aH; not shown: His tag at the C terminus
T1 sequence (looked up): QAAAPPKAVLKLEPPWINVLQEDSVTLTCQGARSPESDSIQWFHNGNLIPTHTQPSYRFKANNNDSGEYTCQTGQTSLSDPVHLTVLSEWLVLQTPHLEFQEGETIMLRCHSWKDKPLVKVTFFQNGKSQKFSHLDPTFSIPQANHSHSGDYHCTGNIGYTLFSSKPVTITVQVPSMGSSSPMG


Each binder was assayed against T1, FcγRIIa H (assay: SPR Biacore, relative binding).

Binder | He/Con_2aH
GpH7-A5/GpH7-B3 variant Q295_05P/GpL16-k0 (antibody, human IgG1, kappa, also called He Ab Q295_05P) heavy 1: not shown heavy 2: not shown light: DIVMTQSPLSLPVTPGEPASISCQASESLVHSNRNTYLHWYLQKPGQSPQLLIYKVSNRFSGVPDRFSGSGSGTDFTLKISRVEAEDVGVYYCSQNTHVPPTFGQGTKVEIERTVAAPSVFIFPPSDEQLKSGTASVVCLLNNFYPREAKVQWKVDNALQSGNSQESVTEQDSKDSTYSLSSTLTLSKADYEKHKVYACEVTHQGLSSPVTKSFNRGEC | 103 % of GpH7-A5/GpH7-B3/GpL16-k0 (=100)
GpH7-A5/GpH7-B3 variant S239_09D/GpL16-k0 (antibody, human IgG1, kappa, also called He Ab S239_09D) heavy 1: not shown heavy 2: not shown light: DIVMTQSPLSLPVTPGEPASISCQASESLVHSNRNTYLHWYLQKPGQSPQLLIYKVSNRFSGVPDRFSGSGSGTDFTLKISRVEAEDVGVYYCSQNTHVPPTFGQGTKVEIERTVAAPSVFIFPPSDEQLKSGTASVVCLLNNFYPREAKVQWKVDNALQSGNSQESVTEQDSKDSTYSLSSTLTLSKADYEKHKVYACEVTHQGLSSPVTKSFNRGEC | 114 % of GpH7-A5/GpH7-B3/GpL16-k0 (=100)
GpH7-A5/GpH7-B3 variant L328_13S/GpL16-k0 (antibody, human IgG1, kappa, also called He Ab L328_13S) heavy 1: not shown heavy 2: not shown light: DIVMTQSPLSLPVTPGEPASISCQASESLVHSNRNTYLHWYLQKPGQSPQLLIYKVSNRFSGVPDRFSGSGSGTDFTLKISRVEAEDVGVYYCSQNTHVPPTFGQGTKVEIERTVAAPSVFIFPPSDEQLKSGTASVVCLLNNFYPREAKVQWKVDNALQSGNSQESVTEQDSKDSTYSLSSTLTLSKADYEKHKVYACEVTHQGLSSPVTKSFNRGEC | 123 % of GpH7-A5/GpH7-B3/GpL16-k0 (=100)
GpH7-A5/GpH7-B3 variant L328_06M/GpL16-k0 (antibody, human IgG1, kappa, also called He Ab L328_06M) heavy 1: not shown heavy 2: not shown light: DIVMTQSPLSLPVTPGEPASISCQASESLVHSNRNTYLHWYLQKPGQSPQLLIYKVSNRFSGVPDRFSGSGSGTDFTLKISRVEAEDVGVYYCSQNTHVPPTFGQGTKVEIERTVAAPSVFIFPPSDEQLKSGTASVVCLLNNFYPREAKVQWKVDNALQSGNSQESVTEQDSKDSTYSLSSTLTLSKADYEKHKVYACEVTHQGLSSPVTKSFNRGEC | 104 % of GpH7-A5/GpH7-B3/GpL16-k0 (=100)
GpH7-A5/GpH7-B3 variant L328_14T/GpL16-k0 (antibody, human IgG1, kappa, also called He Ab L328_14T) heavy 1: not shown heavy 2: not shown light: DIVMTQSPLSLPVTPGEPASISCQASESLVHSNRNTYLHWYLQKPGQSPQLLIYKVSNRFSGVPDRFSGSGSGTDFTLKISRVEAEDVGVYYCSQNTHVPPTFGQGTKVEIERTVAAPSVFIFPPSDEQLKSGTASVVCLLNNFYPREAKVQWKVDNALQSGNSQESVTEQDSKDSTYSLSSTLTLSKADYEKHKVYACEVTHQGLSSPVTKSFNRGEC | 116 % of GpH7-A5/GpH7-B3/GpL16-k0 (=100)
GpH7-A5/GpH7-B3 variant K334_15Y/GpL16-k0 (antibody, human IgG1, kappa, also called He Ab K334_15Y) heavy 1: not shown heavy 2: not shown light: DIVMTQSPLSLPVTPGEPASISCQASESLVHSNRNTYLHWYLQKPGQSPQLLIYKVSNRFSGVPDRFSGSGSGTDFTLKISRVEAEDVGVYYCSQNTHVPPTFGQGTKVEIERTVAAPSVFIFPPSDEQLKSGTASVVCLLNNFYPREAKVQWKVDNALQSGNSQESVTEQDSKDSTYSLSSTLTLSKADYEKHKVYACEVTHQGLSSPVTKSFNRGEC | 106 % of GpH7-A5/GpH7-B3/GpL16-k0 (=100)

The next lines start with the values.

He/Con_2aH | Binder
104 % of GpH7-A5/GpH7-B3/GpL16-k0 (=100) | GpH7-A5/GpH7-B3 variant K334_08L/GpL16-k0 (antibody, human IgG1, kappa, also called He Ab K334_08L) heavy 1: not shown heavy 2: not shown light: DIVMTQSPLSLPVTPGEPASISCQASESLVHSNRNTYLHWYLQKPGQSPQLLIYKVSNRFSGVPDRFSGSGSGTDFTLKISRVEAEDVGVYYCSQNTHVPPTFGQGTKVEIERTVAAPSVFIFPPSDEQLKSGTASVVCLLNNFYPREAKVQWKVDNALQSGNSQESVTEQDSKDSTYSLSSTLTLSKADYEKHKVYACEVTHQGLSSPVTKSFNRGEC
107 % of GpH7-A5/GpH7-B3/GpL16-k0 (=100) | GpH7-A5/GpH7-B3 variant P271_01G/GpL16-k0 (antibody, human IgG1, kappa, also called He Ab P271_01G) heavy 1: not shown heavy 2: not shown light: DIVMTQSPLSLPVTPGEPASISCQASESLVHSNRNTYLHWYLQKPGQSPQLLIYKVSNRFSGVPDRFSGSGSGTDFTLKISRVEAEDVGVYYCSQNTHVPPTFGQGTKVEIERTVAAPSVFIFPPSDEQLKSGTASVVCLLNNFYPREAKVQWKVDNALQSGNSQESVTEQDSKDSTYSLSSTLTLSKADYEKHKVYACEVTHQGLSSPVTKSFNRGEC
106 % of GpH7-A5/GpH7-B3/GpL16-k0 (=100) | GpH7-A5/GpH7-B3 variant K334_04F/GpL16-k0 (antibody, human IgG1, kappa, also called He Ab K334_04F) heavy 1: not shown heavy 2: not shown light: DIVMTQSPLSLPVTPGEPASISCQASESLVHSNRNTYLHWYLQKPGQSPQLLIYKVSNRFSGVPDRFSGSGSGTDFTLKISRVEAEDVGVYYCSQNTHVPPTFGQGTKVEIERTVAAPSVFIFPPSDEQLKSGTASVVCLLNNFYPREAKVQWKVDNALQSGNSQESVTEQDSKDSTYSLSSTLTLSKADYEKHKVYACEVTHQGLSSPVTKSFNRGEC
110 % of GpH7-A5/GpH7-B3/GpL16-k0 (=100) | GpH7-A5/GpH7-B3 variant K326_09D/GpL16-k0 (antibody, human IgG1, kappa, also called He Ab K326_09D) heavy 1: not shown heavy 2: not shown light: DIVMTQSPLSLPVTPGEPASISCQASESLVHSNRNTYLHWYLQKPGQSPQLLIYKVSNRFSGVPDRFSGSGSGTDFTLKISRVEAEDVGVYYCSQNTHVPPTFGQGTKVEIERTVAAPSVFIFPPSDEQLKSGTASVVCLLNNFYPREAKVQWKVDNALQSGNSQESVTEQDSKDSTYSLSSTLTLSKADYEKHKVYACEVTHQGLSSPVTKSFNRGEC
130 % of GpH7-A5/GpH7-B3/GpL16-k0 (=100) | GpH7-A5/GpH7-B3 variant L328_02A/GpL16-k0 (antibody, human IgG1, kappa, also called He Ab L328_02A) heavy 1: not shown heavy 2: not shown light: DIVMTQSPLSLPVTPGEPASISCQASESLVHSNRNTYLHWYLQKPGQSPQLLIYKVSNRFSGVPDRFSGSGSGTDFTLKISRVEAEDVGVYYCSQNTHVPPTFGQGTKVEIERTVAAPSVFIFPPSDEQLKSGTASVVCLLNNFYPREAKVQWKVDNALQSGNSQESVTEQDSKDSTYSLSSTLTLSKADYEKHKVYACEVTHQGLSSPVTKSFNRGEC
